Where no end group is shown, it is not given here. The star is where a group is joined. Biotin = O=C1N[C@H]2[C@H](CS[C@H]2CCCCC(=O)*)N1
T1: Peptide 3: Biotin-ATNMDSSHSIT (human)
T1 peptide: Biotin-ATNMDSSHSIT

B1: Peptide 1: Biotin-STDRIPATNMD (peptide)
peptide: Biotin-STDRIPATNMD
B2: VB1-008 monoclonal antibody (antibody, human IgG1, V domains shown)
VH: QVQLQELGPRLVRPSQTLILTCTVSGGSVSGDEYYWSWLRQTPGKGLEWIGYMSYRGSSYYSPSLQSRVTIAVDRSKNEFSLKLTSVTAADAAVYFCARKYCGGDCRSGFDIWGRGTMVTVAS
VL: YELTQPPSVSVSPGQKAFITCSGDNLGNKYVCWYQQKPGQSPVLVIYEDTKRPSGIPERFSASNSGNTATLTISGTQPIDEADYYCQAWDSRTEIFGTGTKVTVLS
notes: also called 17P2/C12
B3: Negative control peptide: Biotin-AVEDRKPSGLN (peptide)
peptide: Biotin-AVEDRKPSGLN

How the values were obtained:
[1] = molecular target: B2; assay: peptide competition, flow cytometry on MDA-MB-435S cells
[2] = molecular target: T1, Peptide 3: Biotin-ATNMDSSHSIT; assay: ELISA on peptide-coated plates, 75 µg/mL VB1-008
Method: (§1) Peptide solutions were diluted 1-in-100 with Hank's buffered saline solution (HBSS) containing 0.5% formaldehyde. 10Q̂iL of diluted peptide solution was distributed to each well in a 96-well plate. The plates were incubated at room temperature for 1 hour. The supernatant was removed and the plates were placed uncovered in a 37° C. incubator for 16-18 hours. The peptide-coated plates were placed in plastic bags and stored at 2-8° C. until required.
(§2) The plates were washed as previously described with the wash buffer (PBS containing 0.5% Tween 20). The plates were incubated with 1:6000 dilution of anti-human IgG-HRP for one hour at room temperature. The plates were washed as previously described. 100 μL of TMB substrate (TMB peroxidase substrate KPL cat #50-76-00) was added to each well and incubated for 5-10 minutes in the dark. The reaction was terminated by adding 100 μL of 1M phosphoric acid to each well. The optical density was measured at 450 nm using an ELISA plate reader.

[3] = molecular target: B3; assay: ELISA on peptide-coated plates
Method: as §1
(§3) Following overnight incubation of the peptide-coated plates, 300 μL of wash buffer (PBS containing 0.5% Tween20) was manually added to each plate, with the help of a repeator pipette equipped with an 8-channel adaptor. The contents of the plates were discarded; the plates were inverted and patted on 3-4 inches of paper towel to remove excess liquid. The above steps were repeated two more times.
as §2

[4] = molecular target: B1; assay: ELISA on peptide-coated plates
Method: as §1, §3, §2

Binder	binding result [1]	binding result [2]	binding result [3]	binding result [4]
B1	no binding			
B2		binds	no binding (tested: 75 µg/mL VB1-008)	no binding (tested: 75 µg/mL VB1-008)
B3	no binding			

Source: patent publication US20130217865A1 (VIVENTIA BIOTECHNOLOGIES, published 2013)
